The chains are these.
B1: CASP6 (parent)
chain: TCADRDNLTRRFSDLGFEVKCFND
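Note: lentivirally expressed fusions sorted by FACS into six bins by GFP to DsRed ratio, PSI derived from sequencing read proportions per bin multiplied by bin number.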

The data set covers variants of B1. The data set is described as follows: protein stability index of a GFP-peptide fusion (GPS, HEK-293T) (PSI 1-6); higher = more stable. The note with it: c terminus: a fixed tail appended.
For TCAPRDNLTRRFSDLGFEVKCFND [D4P], the protein stability index stood at 2.75.

Regarding TCAFRDNLTRRFSDLGFEVKCFND [D4F], the protein stability index came to 2.78.

TCASRDNLTRRFSDLGFEVKCFND [D4S]: the protein stability index was 3.02.

As for TCAERDNLTRRFSDLGFEVKCFND [D4E], the protein stability index was found to be 3.74.

With TCARRDNLTRRFSDLGFEVKCFND [D4R], the protein stability index came out at 2.95.

As for TCALRDNLTRRFSDLGFEVKCFND [D4L], the protein stability index is 2.21.

With TCAMRDNLTRRFSDLGFEVKCFND [D4M], the protein stability index turned out to be 2.08.

As to TCAGRDNLTRRFSDLGFEVKCFND [D4G], the protein stability index was determined as 3.28.

On to TCATRDNLTRRFSDLGFEVKCFND [D4T], for which the protein stability index turned out to be 2.64.

Take TCAWRDNLTRRFSDLGFEVKCFND [D4W]: the protein stability index came out at 3.54.

Take TCANRDNLTRRFSDLGFEVKCFND [D4N]: the protein stability index was 3.17.

In the case of TCAARDNLTRRFSDLGFEVKCFND [D4A], the protein stability index is 2.61.

TCAYRDNLTRRFSDLGFEVKCFND [D4Y]: the protein stability index was 2.44.

Take TCACRDNLTRRFSDLGFEVKCFND [D4C]: the protein stability index is 1.58.

Take TCAKRDNLTRRFSDLGFEVKCFND [D4K]: the protein stability index stood at 3.37.

Regarding TCAVRDNLTRRFSDLGFEVKCFND [D4V], the protein stability index is 3.05.

In the case of TCAQRDNLTRRFSDLGFEVKCFND [D4Q], the protein stability index worked out at 3.36.

As for TCAHRDNLTRRFSDLGFEVKCFND [D4H], the protein stability index was 2.96.

In the case of TCADRWNLTRRFSDLGFEVKCFND [D6W], the protein stability index came out at 2.09.

With TCADRFNLTRRFSDLGFEVKCFND [D6F], the protein stability index was 2.51.

For TCADRCNLTRRFSDLGFEVKCFND [D6C], the protein stability index was 2.43.

TCADRPNLTRRFSDLGFEVKCFND [D6P]: the protein stability index is 3.68.

TCADRQNLTRRFSDLGFEVKCFND [D6Q]: the protein stability index turned out to be 3.44.

For TCADRGNLTRRFSDLGFEVKCFND [D6G], the protein stability index is 3.47.

For the variant TCADRSNLTRRFSDLGFEVKCFND [D6S], the protein stability index amounted to 3.01.

In the case of TCADRYNLTRRFSDLGFEVKCFND [D6Y], the protein stability index was determined as 2.44.

With TCADRTNLTRRFSDLGFEVKCFND [D6T], the protein stability index was determined as 3.2.

In the case of TCADRRNLTRRFSDLGFEVKCFND [D6R], the protein stability index is 3.16.

As for TCADRVNLTRRFSDLGFEVKCFND [D6V], the protein stability index is 2.38.

For the variant TCADRANLTRRFSDLGFEVKCFND [D6A], the protein stability index is 2.76.

For the variant TCADRMNLTRRFSDLGFEVKCFND [D6M], the protein stability index was 3.09.

Turning to TCADRLNLTRRFSDLGFEVKCFND [D6L], the protein stability index was 3.06.

For TCADRINLTRRFSDLGFEVKCFND [D6I], the protein stability index came out at 2.96.

On to TCADRENLTRRFSDLGFEVKCFND [D6E], for which the protein stability index came to 3.56.

Consider TCADRKNLTRRFSDLGFEVKCFND [D6K], for which the protein stability index was found to be 2.75.

With TCADRNNLTRRFSDLGFEVKCFND [D6N], the protein stability index was 2.29.

Regarding TCADRHNLTRRFSDLGFEVKCFND [D6H], the protein stability index was 3.08.

With TCADRDNLWRRFSDLGFEVKCFND [T9W], the protein stability index was 2.34.

For the variant TCADRDNLQRRFSDLGFEVKCFND [T9Q], the protein stability index worked out at 3.49.

Turning to TCADRDNLCRRFSDLGFEVKCFND [T9C], the protein stability index was 2.87.

Take TCADRDNLKRRFSDLGFEVKCFND [T9K]: the protein stability index worked out at 3.12.

For TCADRDNLRRRFSDLGFEVKCFND [T9R], the protein stability index was 3.36.

As to TCADRDNLSRRFSDLGFEVKCFND [T9S], the protein stability index was 3.25.

Turning to TCADRDNLIRRFSDLGFEVKCFND [T9I], the protein stability index came to 2.69.

In the case of TCADRDNLFRRFSDLGFEVKCFND [T9F], the protein stability index amounted to 1.94.

On to TCADRDNLMRRFSDLGFEVKCFND [T9M], for which the protein stability index was determined as 2.54.

On to TCADRDNLARRFSDLGFEVKCFND [T9A], for which the protein stability index came to 3.3.

Turning to TCADRDNLDRRFSDLGFEVKCFND [T9D], the protein stability index worked out at 3.51.

As to TCADRDNLPRRFSDLGFEVKCFND [T9P], the protein stability index was 3.62.

Consider TCADRDNLYRRFSDLGFEVKCFND [T9Y], for which the protein stability index worked out at 2.41.

For the variant TCADRDNLERRFSDLGFEVKCFND [T9E], the protein stability index worked out at 3.75.

With TCADRDNLLRRFSDLGFEVKCFND [T9L], the protein stability index was found to be 3.12.

Regarding TCADRDNLGRRFSDLGFEVKCFND [T9G], the protein stability index stood at 3.47.

For TCADRDNLHRRFSDLGFEVKCFND [T9H], the protein stability index is 3.03.

On to TCADRDNLNRRFSDLGFEVKCFND [T9N], for which the protein stability index was 2.83.

Take TCADRDNLVRRFSDLGFEVKCFND [T9V]: the protein stability index worked out at 3.58.

TCADRDNWTRRFSDLGFEVKCFND [L8W]: the protein stability index was determined as 2.79.

With TCADRDNSTRRFSDLGFEVKCFND [L8S], the protein stability index stood at 3.82.

Consider TCADRDNETRRFSDLGFEVKCFND [L8E], for which the protein stability index came to 4.42.

For the variant TCADRDNFTRRFSDLGFEVKCFND [L8F], the protein stability index is 2.45.

For the variant TCADRDNTTRRFSDLGFEVKCFND [L8T], the protein stability index is 3.49.

In the case of TCADRDNKTRRFSDLGFEVKCFND [L8K], the protein stability index stood at 3.6.

TCADRDNCTRRFSDLGFEVKCFND [L8C]: the protein stability index is 2.99.

Turning to TCADRDNATRRFSDLGFEVKCFND [L8A], the protein stability index came out at 3.38.

For TCADRDNITRRFSDLGFEVKCFND [L8I], the protein stability index is 3.31.

For TCADRDNPTRRFSDLGFEVKCFND [L8P], the protein stability index came out at 3.52.

On to TCADRDNNTRRFSDLGFEVKCFND [L8N], for which the protein stability index turned out to be 2.38.

TCADRDNMTRRFSDLGFEVKCFND [L8M]: the protein stability index turned out to be 3.03.

Turning to TCADRDNVTRRFSDLGFEVKCFND [L8V], the protein stability index turned out to be 3.37.

Consider TCADRDNYTRRFSDLGFEVKCFND [L8Y], for which the protein stability index worked out at 2.91.

With TCADRDNHTRRFSDLGFEVKCFND [L8H], the protein stability index turned out to be 3.28.

As to TCADRDNQTRRFSDLGFEVKCFND [L8Q], the protein stability index was 4.08.

As for TCADRDNDTRRFSDLGFEVKCFND [L8D], the protein stability index turned out to be 4.06.

Turning to TCADRDNGTRRFSDLGFEVKCFND [L8G], the protein stability index turned out to be 3.66.

Consider TCADRDNRTRRFSDLGFEVKCFND [L8R], for which the protein stability index was 4.07.

Consider TCFDRDNLTRRFSDLGFEVKCFND [A3F], for which the protein stability index was determined as 2.52.

In the case of TCDDRDNLTRRFSDLGFEVKCFND [A3D], the protein stability index turned out to be 3.96.

For TCSDRDNLTRRFSDLGFEVKCFND [A3S], the protein stability index was determined as 3.64.

Regarding TCHDRDNLTRRFSDLGFEVKCFND [A3H], the protein stability index is 2.98.

Turning to TCVDRDNLTRRFSDLGFEVKCFND [A3V], the protein stability index was determined as 3.52.

In the case of TCCDRDNLTRRFSDLGFEVKCFND [A3C], the protein stability index worked out at 2.84.

Take TCRDRDNLTRRFSDLGFEVKCFND [A3R]: the protein stability index stood at 2.97.

As for TCPDRDNLTRRFSDLGFEVKCFND [A3P], the protein stability index turned out to be 4.03.

With TCLDRDNLTRRFSDLGFEVKCFND [A3L], the protein stability index turned out to be 3.14.

On to TCYDRDNLTRRFSDLGFEVKCFND [A3Y], for which the protein stability index came out at 2.9.

As for TCMDRDNLTRRFSDLGFEVKCFND [A3M], the protein stability index worked out at 3.45.

Take TCQDRDNLTRRFSDLGFEVKCFND [A3Q]: the protein stability index turned out to be 4.01.

Turning to TCIDRDNLTRRFSDLGFEVKCFND [A3I], the protein stability index turned out to be 3.21.

As to TCKDRDNLTRRFSDLGFEVKCFND [A3K], the protein stability index is 3.7.

Turning to TCNDRDNLTRRFSDLGFEVKCFND [A3N], the protein stability index stood at 3.38.

Turning to TCEDRDNLTRRFSDLGFEVKCFND [A3E], the protein stability index was 3.65.

For TCGDRDNLTRRFSDLGFEVKCFND [A3G], the protein stability index came to 3.38.

With TCTDRDNLTRRFSDLGFEVKCFND [A3T], the protein stability index was 3.63.

As to TCWDRDNLTRRFSDLGFEVKCFND [A3W], the protein stability index stood at 3.21.

(Values after the supplement of paper PMC10567573.)
